Laboratory results: US20210346432A1 (Memorial Sloan Kettering, published 2021)

B1: ET140-207 (scFv)
scFv: QPVLTQPPSASASLGASVTLTCTLSSGYSNYKVDWYQQRPGKGPRFLMRVDTGGIVGSKGDGIPDRFSVSGSGLNRYLTIKNIQEEDESDYHCGADHGSGSNFVWVFGGGTKLTVLGSRGGGGSGGGGSGGGGSLEMAQVQLVQSGAEVKKPGSSVKVSCKASGGTFSSYAISWVRQAPGQGLEWMGGIIPIFSTANYAQKFQGRVTMTTDTSTSTAYMELRSLRSDDTAVYYCARQPWTWYSPYDQWGQGTLVTVSS
notes: also called ET140-207 scFv; ET140-57 scFv
B2: ET140-172 (scFv)
scFv: QSVVTQPPSVSGAPGQRVTISCSGSSSNIGARYDVQWYQQLPGTAPKLLIFGNNNRPSGVPDRFSGSKSGTSASLAITGLQAEDEADYYCQSYDSSLSASVFGGGTKLTVLGSRGGGGSGGGGSGGGGSLEMAEVQLVQSGAEVKKPGASVKVSCKASGYTFTSYYMHWVRQAPGQGLEWMGIINPSGGSTSYAQKFQGRVTMTRDTSTSTVYMELSSLRSEDTAVYYCARSQWGGVLDYWGQGTLVTVSS
notes: also called ET140-172 scFv; ET140-22 scFv
B3: ET140-174 (scFv)
scFv: SYELTQPPSASGTPGQRVTMSCSGTSSNIGSHSVNWYQQLPGTAPKLLIYTNNQRPSGVPDRFSGSKSGTSASLAISGLQSEDEADYYCAAWDGSLNGLVFGGGTKLTVLGSRGGGGSGGGGSGGGGSLEMAEVQLVQSGAEVKKPGESLKISCKGSGYSFTSYWIGWVRQMPGKGLEWMGIIYPGDSDTRYSPSFQGHVTISADKSISTAYLQWSSLKASDTAMYYCARYSGSFDNWGQGTLVTVSS
notes: also called ET140-174 scFv; ET140-24 scFv
B4: ET140-188 (scFv)
scFv: SYVLTQPPSASGTPGQRVTISCSGSSSNIGSNTVNWYQQVPGTAPKLLIYSNNQRPSGVPDRFSGSKSGASASLAISWLQSEDEADYYCAAWDDSLNGWVFGGGTKLTVLGSRGGGGSGGGGSGGGGSLEMAQMQLVQSGAEVKKPGASVKVSCKASGYTFTGYYVHWLRQAPGQGLEWMGWINPNSGGTNNAQEFQGRITMTRDTSINTAYMELSRLRSDDTAVYYCARSQWGGTYDYWGQGTLVTVSS
notes: also called ET140-188 scFv; ET140-38 scFv
B5: ET140-196 (scFv)
scFv: QAVLTQPPSASGTPGQRVTISCSGSSSNIGSYTVSWYQQLPGTAPKFLIYSNNQRPSGVPDRFSGSKSGTSASLAISGLQSEDEADYYCAAWDDSLNGYVFGTGTKVTVLGSRGGGGSGGGGSGGGGSLEMAEVQLVQSGAEVKKPGESLKISCKGSGYDFTTYWIGWVRQMPGKGLEWMGIIYPGDSDTRYSPSVRGRVTISADKSINTAYLQWSSLEASDTAMYYCARMWTFSQDGWGQGTLVTVSS
notes: also called ET140-196 scFv; ET140-46 scFv
B6: ET140-201 (scFv)
scFv: QPVLTQPPSASASLGASVTLTCTLSSGYSNYKVDWYQQRPGKGPRFVMRVGTGGIVGSKGDGIPDRFSVLGSGLNRYLTIKNIQEEDEGDYHCGADHGSGSNFVYVFGTGTKVTVLGSRGGGGSGGGGSGGGGSLEMAQVQLQESGPGLVKPSGTLSLTCGVSGGSISNSNWWSWVRQPPGKGLEWIGEIYHSGSTKYNPSLRSRVTISVDKSKNQFSLKLSSVTAADTAVYYCARRDNWKTPTTKIDGFDIWGQGTMVTVSS
notes: also called ET140-201 scFv; ET140-51 scFv
B7: ET140-204 (scFv)
scFv: QSALTQPASVSASPGQSIAISCTGTSSDVGWYQQHPGKAPKLMIYEDSKRPSGVSNRFSGSKSGNTASLTISGLQAEDEADYYCSSNTRSSTLVFGGGTKLTVLGSRGGGGSGGGGSGGGGSLEMAEVQLVQSGAEMKKPGASLKLSCKASGYTFIDYYVYWMRQAPGQGLESMGWINPNSGGTNYAQKFQGRVTMTRDTSISTAYMELSRLRSDDTAMYYCARSQRDGYMDYWGQGTLVTVSS
notes: also called ET140-204 scFv; ET140-54 scFv
B8: BCMA-targeted 28z CAR24 (other)
chain: SYELTQPPSASGTPGQRVTMSCSGTSSNIGSHSVNWYQQLPGTAPKLLIYTNNQRPSGVPDRFSGSKSGTSASLAISGLQSEDEADYYCAAWDGSLNGLVFGGGTKLTVLGSRGGGGSGGGGSGGGGSLEMAEVQLVQSGAEVKKPGESLKISCKGSGYSFTSYWIGWVRQMPGKGLEWMGIIYPGDSDTRYSPSFQGHVTISADKSISTAYLQWSSLKASDTAMYYCARYSGSFDNWGQGTLVTVSSIEVMYPPPYLDNEKSNGTIIHVKGKHLCPSPLFPGPSKPFWVLVVVGGVLACYSLLVTVAFIIFWVRSKRSRLLHSDYMNMTPRRPGPTRKHYQPYAPPRDFAAYRSRVKFSRSADAPAYQQGQNQLYNELNLGRREEYDVLDKRRGRDPEMGGKPRRKNPQEGLYNELQKDKMAEAYSEIGMKGERRRGKGHDGLYQGLSTATKDTYDALHMQALPPR
notes: Chimeric antigen receptor on transduced human T cells; leader left out; also called BCMA-specific 28z CAR24

Key:
mouse BCMA = target: T1, mouse BCMA (mouse, UniProt O88472 1-49, limits assumed); assay: ELISA (OD450), single point, coats human BCMA, mouse BCMA, blank
T1 chain (looked up): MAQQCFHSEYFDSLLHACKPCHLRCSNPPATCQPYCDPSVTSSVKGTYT

[1] = target: T2, A647 conjugated BCMA-Fc fusion protein (human, UniProt Q02223 1-54, A647 conjugated (site not stated)); assay: flow cytometry, A647 conjugated BCMA-Fc on CAR-transduced human T cells
T2 construct: Staining reagent for CAR on T cells; not shown: Fc part
T2 sequence: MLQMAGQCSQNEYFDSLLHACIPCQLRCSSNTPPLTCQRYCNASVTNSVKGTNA
Experimental: Human T cells (unselected (CD4 and CD8) human T cells from a healthy donor) were transduced with retrovirus in order to express each of these BCMA-targeted CARs such that the T cells expressed these BCMA-targeted 28z CARs. The cell surface expression of BCMA-targeted CARs on human T cells was determined via binding A647 conjugated BCMA-Fc fusion protein.

Row | binding result (mouse BCMA) | binding result [1] | Binder
1 | no binding | – | B1
2 | no binding | – | B2
3 | no binding | – | B3
4 | no binding | – | B4
5 | no binding | – | B5
6 | no binding | – | B6
7 | no binding | – | B7
8 | – | binds | B8
